Values quoted from earlier work, collected in publication PMC4186963.

Target: CD28 (Homo sapiens) (UniProt P10747)

Kd: 200 nM
Substance: CD80 (from UniProt P33681)
